B1: pol η (Homo sapiens) (protein)
chain: MATGQDRVVALVDMDCFFVQVEQRQNPHLRNKPCAVVQYKSWKGGGIIAVSYEARAFGVTRSMWADDAKKLCPDLLLAQVRESRGKANLTKYREASVEVMEIMSRFAVIERASIDEAYVDLTSAVQERLQKLQGQPISADLLPSTYIEGLPQGPTTAEETVQKEGMRKQGLFQWLDSLQIDNLTSPDLQLTVGAVIVEEMRAAIERETGFQCSAGISHNKVLAKLACGLNKPNRQTLVSHGSVPQLFSQMPIRKIRSLGGKLGASVIEILGIEYMGELTQFTESQLQSHFGEKNGSWLYAMCRGIEHDPVKPRQLPKTIGCSKNFPGKTALATREQVQWWLLQLAQELEERLTKDRNDNDRVATQLVVSIRVQGDKRLSSLRRCCALTRYDAHKMSHDAFTVIKNCNTSGIQTEWSPPLTMLFLCATKFSASAPSSSTDITSFLSSDPSSLPKVPVTSSEAKTQGSGPAVTATKKATTSLESFFQKAAERQKVKEASLSSLTAPTQAPMSNSPSKPSLPFQTSQSTGTEPFFKQKSLLLKQKQLNNSSVSSPQQNPWSNCKALPNSLPTEYPGCVPVCEGVSKLEESSKATPAEMDLAHNSQSMHASSASKSVLEVTQKATPNPSLLAAEDQVPCEKCGSLVPVWDMPEHMDYHFALELQKSFLQPHSSNPQVVSAVSHQGKRNPKSPLACTNKRPRPEGMQTLESFFKPLTH
B2: pol κ (Homo sapiens) (protein)
chain: MDSTKEKCDSYKDDLLLRMGLNDNKAGMEGLDKEKINKIIMEATKGSRFYGNELKKEKQVNQRIENMMQQKAQITSQQLRKAQLQVDRFAMELEQSRNLSNTIVHIDMDAFYAAVEMRDNPELKDKPIAVGSMSMLSTSNYHARRFGVRAAMPGFIAKRLCPQLIIVPPNFDKYRAVSKEVKEILADYDPNFMAMSLDEAYLNITKHLEERQNWPEDKRRYFIKMGSSVENDNPGKEVNKLSEHERSISPLLFEESPSDVQPPGDPFQVNFEEQNNPQILQNSVVFGTSAQEVVKEIRFRIEQKTTLTASAGIAPNTMLAKVCSDKNKPNGQYQILPNRQAVMDFIKDLPIRKVSGIGKVTEKMLKALGIITCTELYQQRALLSLLFSETSWHYFLHISLGLGSTHLTRDGERKSMSVERTFSEINKAEEQYSLCQELCSELAQDLQKERLKGRTVTIKLKNVNFEVKTRASTVSSVVSTAEEIFAIAKELLKTEIDADFPHPLRLRLMGVRISSFPNEEDRKHQQRSIIGFLQAGNQALSATECTLEKTDKDKFVKPLEMSHKKSFFDKKRSERKWSHQDTFKCEAVNKQSFQTSQPFQVLKKKMNENLEISENSDDCQILTCPVCFRAQGCISLEALNKHVDECLDGPSISENFKMFSCSHVSATKVNKKENVPASSLCEKQDYEAHPKIKEISSVDCIALVDTIDNSSKAESIDALSNKHSKEECSSLPSKSFNIEHCHQNSSSTVSLENEDVGSFRQEYRQPYLCEVKTGQALVCPVCNVEQKTSDLTLFNVHVDVCLNKSFIQELRKDKFNPVNQPKESSRSTGSSSGVQKAVTRTKRPGLMTKYSTSKKIKPNNPKHTLDIFFK
B3: pol ι (Homo sapiens) (protein)
chain: MEKLGVEPEEEGGGDDDEEDAEAWAMELADVGAAASSQGVHDQVLPTPNASSRVIVHVDLDCFYAQVEMISNPELKDKPLGVQQKYLVVTCNYEARKLGVKKLMNVRDAKEKCPQLVLVNGEDLTRYREMSYKVTELLEEFSPVVERLGFDENFVDLTEMVEKRLQQLQSDELSAVTVSGHVYNNQSINLLDVLHIRLLVGSQIAAEMREAMYNQLGLTGCAGVASNKLLAKLVSGVFKPNQQTVLLPESCQHLIHSLNHIKEIPGIGYKTAKCLEALGINSVRDLQTFSPKILEKELGISVAQRIQKLSFGEDNSPVILSGPPQSFSEEDSFKKCSSEVEAKNKIEELLASLLNRVCQDGRKPHTVRLIIRRYSSEKHYGRESRQCPIPSHVIQKLGTGNYDVMTPMVDILMKLFRNMVNVKMPFHLTLLSVCFCNLKALNTAKKGLIDYYLMPSLSTTSRSGKHSFKMKDTHMEDFPKDKETNRDFLPSGRIESTRTRESPLDTTNFSKEKDINEFPLCSLPEGVDQEVFKQLPVDIQEEILSGKSREKFQGKGSVSCPLHASRGVLSFFSKKQMQDIPINPRDHLSSSKQVSSVSPCEPGTSGFNSSSSSYMSSQKDYSYYLDNRLKDERISQGPKEPQGFHFTNSNPAVSAFHSFPNLQSEQLFSRNHTTDSHKQTVATDSHEGLTENREPDSVDEKITFPSDIDPQVFYELPEAVQKELLAEWKRAGSDFHIGHK

Legend:
Experiment in all cases: purified protein
Format in all cases: biochemical, Homo sapiens
purified protein [1] = substrate: Nc1ccn([C@H]2C[C@H](O)[C@@H](COP(=O)(O)OP(=O)(O)OP(=O)(O)O)O2)c(=O)n1; settings: opposite O2-Me-dT template, Mg2+, pH 8.0, 37 °C
purified protein [2] = substrate: Nc1ncnc2c1ncn2[C@H]1C[C@H](O)[C@@H](COP(=O)(O)OP(=O)(O)OP(=O)(O)O)O1; settings: opposite undamaged template dT (P15/T24), Mg2+, pH 8.0, 37 °C
purified protein [3] = substrate: Nc1nc2c(ncn2[C@H]2C[C@H](O)[C@@H](COP(=O)(O)OP(=O)(O)OP(=O)(O)O)O2)c(=O)[nH]1; settings: opposite O2-Me-dT template, Mg2+, pH 8.0, 37 °C

Protein | Km (purified protein [1]) | kcat (purified protein [1]) | kcat/Km (purified protein [1]) | Km (purified protein [2]) | kcat (purified protein [2]) | kcat/Km (purified protein [2]) | Km (purified protein [3]) | kcat (purified protein [3]) | kcat/Km (purified protein [3])
B1 | 130.2 ± 11.4 µM | 0.00113 ± 5e-05 s⁻¹ | 8.67 ± 0.333 M⁻¹ s⁻¹ | 5.3 ± 0.3 µM | 0.817 ± 0.0333 s⁻¹ | 154000 ± 3830 M⁻¹ s⁻¹ | 38.4 ± 1.8 µM | 0.00065 ± 1.67e-05 s⁻¹ | 17.5 ± 0.667 M⁻¹ s⁻¹
B2 | 160 ± 30 µM | 0.00112 ± 0.0001 s⁻¹ | 6.83 M⁻¹ s⁻¹ | 1.4 ± 0.1 µM | – | 53300 M⁻¹ s⁻¹ | 64 ± 12 µM | 0.000917 ± 6.67e-05 s⁻¹ | 14.3 M⁻¹ s⁻¹
B3 | 93 ± 14 µM | 0.00102 ± 6.67e-05 s⁻¹ | 10.8 ± 1 M⁻¹ s⁻¹ | 2.6 ± 0.4 µM | 0.133 ± 0.01 s⁻¹ | 51200 ± 4500 M⁻¹ s⁻¹ | 46 ± 2 µM | 0.0019 ± 3.33e-05 s⁻¹ | 41.7 ± 1.67 M⁻¹ s⁻¹

Reference: article PMC5081176
